Source: publication PMC10364083, “Dimerization of European Robin Cryptochrome 4a” (The Journal of Physical Chemistry. B, 2023)
“And” between values parts separate entries of the source, which are not always exact repeats. Identical values can stand only once. Blank lines part the entries; values can stand above or below the compound they belong to.

Assays:
[1] = biological target: European robin cryptochrome 4a (Erithacus rubecula Cry4a), wild type, with N-terminal 10x His-tag (European robin (Erithacus rubecula)); experiment: mass photometry; 44 nM ErCry4a WT in 200 mM ammonium acetate, pH 8.3; sample shipped with 2 mM DTT; ONE-MP instrument
[2] = biological target: European robin cryptochrome 4a (Erithacus rubecula Cry4a), wild type, with N-terminal 10x His-tag (European robin (Erithacus rubecula)); experiment: native MS; 200 mM ammonium acetate, pH 8; nanoflow electrospray, Q Exactive, positive ion mode; micromolar protein concentrations; His-tagged proteins; WT sample of Figure 3A shipped with 10 mM BME
[3] = biological target: European robin cryptochrome 4a (Erithacus rubecula Cry4a), wild type, with N-terminal 10x His-tag (European robin (Erithacus rubecula)); experiment: as above; remark: listed apart in the source
ErCry4a = biological target: T1, ErCry4a (Erithacus rubecula, UniProt A0A2I4SZI9); experiment: native mass spectrometry of holoprotein; assay type: binding; settings: co-purified non-covalently bound FAD; 200 mM ammonium acetate, pH 8; monomer and dimer
T1 construct: full-length wild type (CTT residues 498-527), N-terminal 10x His-tag kept for native MS, expressed in E. coli; monomer with minor disulfide-linked dimer
T1 sequence (A0A2I4SZI9 1-527): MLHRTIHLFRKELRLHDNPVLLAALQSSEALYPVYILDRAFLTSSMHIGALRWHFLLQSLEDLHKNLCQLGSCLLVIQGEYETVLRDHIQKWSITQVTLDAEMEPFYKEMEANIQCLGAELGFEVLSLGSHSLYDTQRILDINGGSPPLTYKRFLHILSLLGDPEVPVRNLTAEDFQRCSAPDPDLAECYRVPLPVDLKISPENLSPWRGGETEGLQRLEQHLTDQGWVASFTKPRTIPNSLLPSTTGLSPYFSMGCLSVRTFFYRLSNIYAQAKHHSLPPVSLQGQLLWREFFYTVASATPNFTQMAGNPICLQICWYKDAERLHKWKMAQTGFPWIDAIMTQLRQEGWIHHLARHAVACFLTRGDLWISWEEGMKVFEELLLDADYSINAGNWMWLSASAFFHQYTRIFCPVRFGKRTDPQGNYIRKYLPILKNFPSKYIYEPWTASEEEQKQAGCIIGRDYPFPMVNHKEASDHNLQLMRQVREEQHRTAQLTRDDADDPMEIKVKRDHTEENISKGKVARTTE

[4] = biological target: ErCry4a C317A mutant (European robin (Erithacus rubecula)); experiment: native MS; 200 mM ammonium acetate, pH 8; nanoflow electrospray, Q Exactive, positive ion mode; micromolar protein concentrations; His-tagged proteins; WT sample of Figure 3A shipped with 10 mM BME
[5] = biological target: ErCry4a C412A + C317A mutant (European robin (Erithacus rubecula)); experiment: as above
[6] = biological target: ErCry4a C412A mutant (European robin (Erithacus rubecula)); experiment: as above

Compound: Cc1cc2nc3c(=O)[nH]c(=O)nc-3n(C[C@H](O)[C@H](O)[C@H](O)COP(=O)(O)OP(=O)(O)OC[C@H]3O[C@@H](n4cnc5c(N)ncnc54)[C@H](O)[C@@H]3O)c2cc1C [FAD]
native mass spectrometry of holoprotein (ErCry4a): the ErCry4a dimers bind FAD and have native MS charge-state distributions

Compound: ErCry4a C317A mutant (natural protein)
stoichiometry N [4]: 2 and 3

Compound: ErCry4a C412A + C317A mutant (natural protein)
stoichiometry N [5]: 2 and 3

Now from value to compound:

percent of counts in the dimer peak [1]: 11%
stoichiometry N [1]: 2
stoichiometry N [2]: 2
stoichiometry N [3]: 3
Compound: European robin cryptochrome 4a (Erithacus rubecula Cry4a), wild type, with N-terminal 10x His-tag (natural protein)

stoichiometry N [6]: 2 and 3
Compound: ErCry4a C412A mutant (natural protein)
